Holding throughout (test): purified protein
What all share (settings): pH 8.0, 25 °C, 50 mM Tris-HCl, 1 mg/mL arabic gum, 0.05% Triton X-100, 10% isopropanol

Data set [1] has as its system CCCC(=O)Oc1ccc([N+](=O)[O-])cc1.
The test system of data set [2] is CCCCCCCC/C=C\CCCCCCCC(=O)Oc1ccc([N+](=O)[O-])cc1.
For data set [3], the system named is CCC(C)CCCCCCCCCCC(=O)Oc1ccc([N+](=O)[O-])cc1.

The text below walks through data of PMC8452012, “Branched chain fatty acid synthesis drives tissue-specific innate immune response and infection dynamics of Staphylococcus aureus” (PLoS Pathogens, 2021).

A word on the Km: it is the substrate concentration at which the rate is half of its maximum.

On to “Sal1; Sal1-6xHis (Staphylococcus aureus subsp. aureus USA300)”, for which the Km in data set [1] is 332.4 µM. With “Geh (Sal2); Geh-6xHis (Staphylococcus aureus subsp. aureus NCTC 8325)”, the Michaelis constant (Km) is 160.5 µM in data set [2] and 74.1 µM in data set [3].
